How the values were obtained:
[1] = tested on: ATPase domain of GRP78/BiP; assay: GST pull-down with ATPase domain of GRP78/BiP; format: binding; conditions: 10 µg GST-fused ATPase domain, lysate of HEK-293 cells; for the 68 amino acid peptide results not shown
GRP78/BiP [2] = assay: Co-immunoprecipitation with endogenous GRP78/BiP; format: binding
Procedure: 22Rv.1 cells were used for interaction studies of endogenous Bag-1 and GRP78/BiP, while for the in vivo interaction of the Bag-1 peptide and GRP78/BiP, HEK-293 cells were transfected with a plasmid encoding HA-tagged Bag-1 peptide. Twenty-four hours prior to the experiment, the cells in both cases were washed with phosphate buffered saline (PBS) and treated with 20 mM Dithiobis(succinimidyl propionate) (DSP) in PBS for 30 min at room temperature. The reaction was stopped with 20 mM Tris and the cells were lysed in 50 mM Tris-HCl pH 7.4, 120 mM NaCl, 1 mM EDTA, 0.4% NP40 and 1% protease inhibitor cocktail. Immunoprecipitation of GRP78/BiP was carried out overnight at 4°C with anti-GRP78 antibody coupled to sepharose A beads (Abcam, ab21685). Binding of endogenous Bag-1 or of HA-peptide was determined by Western blotting using a Bag-1 or an HA specific antibody.
Figure 1 Bag-1 proteins interact with the molecular chaperone GRP78/BiP. A. The Bag-1 family of proteins binds GRP78/BiP. GST pull-down assay was performed incubating 5 µg each of GST-fused Bag-1 proteins with 400 µg of 22Rv.1 cell lysate. […]
Figure 2 Identification of Bag-1 peptide interfering with the action of GRP78/BiP. […] Western blot analysis with an HA antibody to detected the Bag-1 mutants is shown. […] Thereafter luciferase activity was measured. […]

GRP78/BiP [3] = assay: In vitro ATPase activity assay of GRP78; format: biochemical; conditions: GRP78 0.5 µg, GST purified Bag-1 or Bag-1 peptide up to 1.5 µg, 1 h, 37°C
Procedure: In vitro ATPase activity assay of GRP78. A. ATPase activity was measured with the ATPase assay kit from Innova Bioscience (Cambridge, UK). The reaction mixture contained GRP78 (0.5 µg) increasing amounts of GST purified Bag-1 (continuous line) or Bag-1 peptide (dashed line) up to 1.5 µg. The reaction was carried out for 1 h at 37°C with purified ATP according to the manufacturer’s instructions. Each point represents the mean value of three independent experiments ± SEM. B. The purity of protein preparation used for the assay. Shown are 5 µg of purified GRP78 (StressMarq Biosciences, Victoria, Canada), GST Bag-1 peptide, and GST-Bag-1 used in the assay following SDS PAGE and Coomassie blue staining. (TIF) Click here for additional data file.

Row | Molecule | interaction with ATPase domain of GRP78/BiP [1] | in vivo interaction with GRP78/BiP (GRP78/BiP [2]; 22Rv.1 cells, endogenous Bag-1) | ATPase activity of GRP78/BiP (GRP78/BiP [3]) | in vivo interaction with endogenous GRP78/BiP (GRP78/BiP [2]; HEK-293 cells expressing HA-tagged Bag-1 peptide, DSP cross-linked)
1 | Bag-1: cochaperone Bag-1, HA-tagged (pcDNA3.1-HA-Bag-1), or endogenous (protein, left off: HA, end not stated, kept, cochaperone Bag-1, HA-tagged (pcDNA3.1-HA-Bag-1), or endogenous) TPLSALGIQDGCRVMLIGKKNSPQEEVELKKLKHLEKSVEKIADQLEELNKELTGIQQGFLPKDLQAE | interacted not only with the full length GRP78/BiP but also with its ATPase and SBD | bind to GRP78/BiP in 22Rv.1 cells | increased this enzymatic activity | 
2 | Bag-1 peptide: internal sequence of 68 amino acids of Bag-1 (Bag1-L 202–269), HA-tagged, expressed from pcDNA3 (also: HA tag, end not given here) TPLSALGIQDGCRVMLIGKKNSPQEEVELKKLKHLEKSVEKIADQLEELNKELTGIQQGFLPKDLQAE | interacted with both the SBD and ATPase binding domains of GRP78 |  | did not have any effect on the ATPase activity of GRP78/BiP | interacted with endogenous GRP78/BiP protein
